In paper PMC11125772, “A Self-Assembling Pfs230D1-Ferritin Nanoparticle Vaccine Has Potent and Durable Malaria Transmission-Reducing Activity” (Vaccines, 2024):

B1: Pfs230D1-ferritin (other)
chain: SVLQSGALPSVGVDELDKIDLSYETTESGDTAVSEDSYDKYASNNTNKEYVCDFTDQLKPTESGPKVKKCEVKVNEPLIKVKIICPLKGSVEKLYDNIEYVPKKSPYVVLTKEETKLKEKLLSKLIYGLLISPTVNEKENNFKEGVIEFTLPPVVHKATVFYFICDNSKTEDDNKKGNRGIVEVYVEPYGNKINGGGGGSGESQVRQQFSKDIEKLLNEQVNKEMQSSNLYMSMSSWCYTHSLDGAGLFLFDHAAEEYEHAKKLIIFLNENNVPVQLTSISAPEHKFEGLTQIFQKAYEHEQHISESINNIVDHAIKSKDHATFNFLQWYVAEQHEEEVLFKDILDKIELIGNENHGLYLADQYVKGIAKSRKS
notes: Pfs230 of Plasmodium falciparum 3D7 (XP_001349600.1): a portion of the N-terminal disordered region, amino acids 542-588, and domain 1 (D1), amino acids 589-736; linker that contains residues from the N-terminal extension found in bullfrog lower subunit ferritin; Helicobacter pylori ferritin (WP_000949190.1), amino acids 3-167, with I7E and N19Q; Cloned in a modified pHLSec with a secretion …
B2: ferritin (H. pylori ferritin nanoparticle construct without Pfs230D1) (other)
chain: GGSGGSGGGGSGESQVRQQFSKDIEKLLNEQVNKEMQSSNLYMSMSSWCYTHSLDGAGLFLFDHAAEEYEHAKKLIIFLNENNVPVQLTSISAPEHKFEGLTQIFQKAYEHEQHISESINNIVDHAIKSKDHATFNFLQWYVAEQHEEEVLFKDILDKIELIGNENHGLYLADQYVKGIAKSRKS
notes: linker that contains residues from the N-terminal extension found in bullfrog lower subunit ferritin; Helicobacter pylori ferritin (WP_000949190.1), amino acids 3-167, with I7E and N19Q; Cloned in a modified pHLSec with a secretion signal ahead of the subunit; purified without a tag; Subunit theoretical molecular weight printed as 21.2 kDa; also called ferritin construct; Helicobacter pylori …

Biological target: the molecule itself
Test: SEC-SAXS; SIBYLS beamline 12.3.1; Shodex KW-804 column for Pfs230D1-ferritin, Shodex KW-802.5 column for Pfs230D1; molecular weight from SAXS (ATSAS)

Protein | stoichiometry N
B1 | 24
B2 | 24
